Test results as given in patent US20220175781A1, “CD40L COMPOSITIONS AND METHODS FOR TUNABLE REGULATION” (Obsidian Therapeutics, Inc., priority 2019, published 2022).
Values joined by “and” are separate entries in the source; they are usually repeats but may differ in a detail not shown here. Equal values may be shown once.

Tests used:
CD8 positive T cells = assay: CD40L MFI by FACS in transduced CD8 positive T cells; format: cell-based
Protocol: Regulation of ecDHFR (R12Y, Y100I) DRD based construct OT-001662 and ER (N413D) DRD based construct OT-001666 were tested in CD8 positive T cells. For OT-001662, expressing cells, ligand was added 6 days after viral transduction at a dose of 50 μM TMP. OT-001666 expressing cells were treated with 0.5 μM Bazedoxifene or vehicle control, 5 days after transduction. Approximately 15-30k cells were analyzed per sample by FACS. All samples were compared to empty vector control as well as the constitutively expressed construct, OT-001661. Table 11 provides the mean fluorescence intensities (MFIs) obtained with each sample.

CD8+ T cells = assay: Ligand dose response, % CD40L positive cells, CD8+ T cells; format: cell-based
Protocol: Ligand dose response curve experiments were performed with increasing doses of ligand using OT-001662 and OT-001666 constructs in both CD4+ as well as CD8+ T cells.
The experiments were conducted using three different volumes of virus for transduction i.e. 0.5, 2 and 10 μL.

Jurkat cells [1] = assay: Linker length, ER regulated CD40L, % CD40L positive Jurkat cells; format: cell-based
Protocol: Jurkat cells were lentivirally transduced and 24 hours after transduction were treated with DMSO or 1 μM Bazedoxifene for another 24 hours and analyzed by flow cytometry for surface expression of CD40L. […] In Table 33, SR indicates stabilization ratio.

CD40 = CD40 (UniProt P25942); assay: cell-based or functional assay
Chain of CD40 (P25942 21-277 limits assumed): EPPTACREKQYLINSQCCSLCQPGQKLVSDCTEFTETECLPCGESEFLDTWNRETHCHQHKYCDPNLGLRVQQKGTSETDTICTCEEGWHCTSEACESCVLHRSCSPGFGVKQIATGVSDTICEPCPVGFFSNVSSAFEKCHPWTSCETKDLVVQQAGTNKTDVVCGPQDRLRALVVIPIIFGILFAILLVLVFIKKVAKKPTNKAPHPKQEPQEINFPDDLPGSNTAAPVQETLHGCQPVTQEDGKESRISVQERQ

Jurkat cells [2] = assay: DHFR regulated CD40L expression, transduced Jurkat cells (flow cytometry); format: cell-based
Protocol: Jurkat cells were transduced with lentiviruses corresponding to OT-001662, OT-001962, OT-001961, OT-001963. 24 hours after transduction, cells were split and treated with DMSO or 50 μM TMP for another 24 hours until flow cytometry-based analysis. The results are shown in Table 37 where SR indicates stabilization ration.

T cells = assay: % CD40L positive cells in vivo, transduced T cells in NSG mice dosed with TMP; set-up: species or system NSG female mice
Protocol: Based on the in vitro data, regulatability of CD40L constructs in vivo was tested. 10-week old NSG female mice were injected with T cells transduced with one of the following constructs empty vector, OT-001661, and OT-001662 (day 0). On day 1, mice were pre-bled prior to dose with ligand. On day 2, mice were dosed every 4 hours with TMP at 500 mg/kg body weight of the mouse or vehicle control. Two hours after every dose, blood was collected from the mice to measure CD40L levels. On day 3, i.e. 24 hours after the first dose, mice were terminally bled for analysis. The values in bold represent the average values for each bleed.

[3] = test system: T cells (CD4 and CD8 positive); assay: CD40L MFI in vitro in CD4 and CD8 positive T cells, 10 μM TMP; format: cell-based
Protocol: T cells were transduced with OT-001662 and then treated with 10 μM TMP on day 4. CD40L expression was analyzed by FACS both in the CD4 and CD8 positive T cell populations.

[4] = +Ligand (50 μM TMP OT-001662; 0.5 μM Bazedoxifene OT-001666)

B1: OT-001666 (Met; ER (305-549 of WT, L384M, N413D, M421G, G521R, Y537S); Histidine; CD40L; stop) (ligand)
chain: MSLALSLTADQMVSALLDAEPPILYSEYDPTRPFSEASMMGLLTNLADRELVHMINWAKRVPGFVDLTLHDQVHLLECAWMEILMIGLVWRSMEHPGKLLFAPNLLLDRDQGKCVEGGVEIFDMLLATSSRFRMMNLQGEEFVCLKSIILLNSGVYTFLSSTLKSLEEKDHIHRVLDKITDTLIHLMAKAGLTLQQQHQRLAQLLLILSHIRHMSNKRMEHLYSMKCKNVVPLSDLLLEMLDAHRLHMIETYNQTSPRSAATGLPISMKIFMYLLTVFLITQMIGSALFAVYLHRRLDKIEDERNLHEDFVFMKTIQRCNTGERSLSLLNCEEIKSQFEGFVKDIMLNKEETKKENSFEMQKGDQNPQIAAHVISEASSKTTSVLQWAEKGYYTMSNNLVTLENGKQLTVKRQGLYYIYAQVTFCSNREASSQAPFIASLCLKSPGRFERILLRAANTHSSAKPCGQQSIHLGGVFELQPGASVFVNVTDPSQVSHGTGFTSFGLLKL
What does the source list for B1?
CD40L MFI (CD8 positive T cells; [4]): 33.1; CD40L MFI (CD8 positive T cells; Vehicle): 35.4; % CD40L positive cells (CD8+ T cells; 2 μL virus, BZD 0.05 nM): 0.69%; % CD40L positive cells (CD8+ T cells; 2 μL virus, BZD 0.5 nM): 0.52%; % CD40L positive cells (CD8+ T cells; 2 μL virus, BZD 5 nM): 0.71%; % CD40L positive cells (CD8+ T cells; 2 μL virus, BZD 50 nM): 3.32%; % CD40L positive cells (CD8+ T cells; 2 μL virus, BZD 500 nM): 60%; % CD40L positive cells (CD8+ T cells; 10 μL virus, BZD 0.05 nM): 0.5%; % CD40L positive cells (CD8+ T cells; 10 μL virus, BZD 0.5 nM): 0.2%; % CD40L positive cells (CD8+ T cells; 10 μL virus, BZD 5 nM): 0.23%; % CD40L positive cells (CD8+ T cells; 10 μL virus, BZD 50 nM): 17.7%; % CD40L positive cells (CD8+ T cells; 10 μL virus, BZD 500 nM): 68.5%; Percent of Jurkat cells expressing CD40L (Jurkat cells [1]; 1 μM Bazedoxifene): 30%; SR (Jurkat cells [1]; 1 μM Bazedoxifene versus DMSO, % CD40L positive Jurkat cells): 3; Percent of Jurkat cells expressing CD40L (Jurkat cells [1]; DMSO): 10%; SEAP reporter of HEK-Blue CD40 cells co-cultured 24 hours with transduced Jurkat cells plus 1 µM Bazedoxifene, given as Soluble CD40L (pg/ml) against a recombinant soluble CD40L standard (CD40): 1820 pg/mL

B2: OT-001662: CD40L construct with ecDHFR (M1del, R12Y, Y100I) DRD, ligand TMP (protein)
chain: MSGISLIAALAVDYVIGMENAMPWNLPADLAWFKRNTLNKPVIMGRHTWESIGRPLPGRKNIILSSQPGTDDRVTWVKSVDEAIAACGDVPEIMVIGGGRVIEQFLPKAQKLYLTHIDAEVEGDTHFPDYEPDDWESVFSEFHDADAQNSHSYCFEILERRHMIETYNQTSPRSAATGLPISMKIFMYLLTVFLITQMIGSALFAVYLHRRLDKIEDERNLHEDFVFMKTIQRCNTGERSLSLLNCEEIKSQFEGFVKDIMLNKEETKKENSFEMQKGDQNPQIAAHVISEASSKTTSVLQWAEKGYYTMSNNLVTLENGKQLTVKRQGLYYIYAQVTFCSNREASSQAPFIASLCLKSPGRFERILLRAANTHSSAKPCGQQSIHLGGVFELQPGASVFVNVTDPSQVSHGTGFTSFGLLKL
With B2 as the molecule, how does the “% CD40L expression” value (Jurkat cells [2]; TMP (50 μM)) read?
The value was 90%.

And the SR (Jurkat cells [2]; TMP (50 μM) versus Vehicle)?
Its SR is 90.

And the “% CD40L expression” value (Jurkat cells [2]; Vehicle (DMSO))?
Its value is 1%.

What about the “Expression of CD40L in the presence of ligand, comparison of constructs” value (CD8 positive T cells) of the same molecule?
The value was “higher than the ER DRD based construct”.

What about the “CD40L MFI” value (CD8 positive T cells; [4]) of the same molecule?
The value was 283.

What about the “CD40L MFI” value (CD8 positive T cells; Vehicle) of the same molecule?
The value was 29.0.

What about the “% CD40L positive cells” value (CD8+ T cells; 0.5 μL virus, TMP 0.05 nM) of the same molecule?
Its value is 0.16%.

And the “% CD40L positive cells” value (CD8+ T cells; 0.5 μL virus, TMP 0.5 nM)?
The value was 0.17%.

What about the “% CD40L positive cells” value (CD8+ T cells; 0.5 μL virus, TMP 5 nM) of the same molecule?
Its value is 0.12%.

What about the “% CD40L positive cells” value (CD8+ T cells; 0.5 μL virus, TMP 50 nM) of the same molecule?
The value was 0.19%.

And the “% CD40L positive cells” value (CD8+ T cells; 0.5 μL virus, TMP 500 nM)?
Its value is 0.66%.

What about the “% CD40L positive cells” value (CD8+ T cells; 0.5 μL virus, TMP 5000 nM) of the same molecule?
Its value is 9.21%.

And the “% CD40L positive cells” value (CD8+ T cells; 0.5 μL virus, TMP 50000 nM)?
Its value is 25.2%.

What about the “% CD40L positive cells” value (CD8+ T cells; 2 μL virus, TMP 0.05 nM) of the same molecule?
Its value is 0.2%.

And the “% CD40L positive cells” value (CD8+ T cells; 2 μL virus, TMP 0.5 nM)?
Its value is 0.34%.

And the “% CD40L positive cells” value (CD8+ T cells; 2 μL virus, TMP 5 nM)?
Its value is 0.3%.

And the “% CD40L positive cells” value (CD8+ T cells; 2 μL virus, TMP 50 nM)?
Its value is 0.64%.

And the “% CD40L positive cells” value (CD8+ T cells; 2 μL virus, TMP 500 nM)?
The value was 6.84%.

And the “% CD40L positive cells” value (CD8+ T cells; 2 μL virus, TMP 5000 nM)?
The value was 40.6%.

And the “% CD40L positive cells” value (CD8+ T cells; 2 μL virus, TMP 50000 nM)?
The value was 51%.

What about the “% CD40L positive cells” value (CD8+ T cells; 10 μL virus, TMP 0.05 nM) of the same molecule?
Its value is 0.95%.

What about the “% CD40L positive cells” value (CD8+ T cells; 10 μL virus, TMP 0.5 nM) of the same molecule?
The value was 1.08%.

And the “% CD40L positive cells” value (CD8+ T cells; 10 μL virus, TMP 5 nM)?
The value was 1.02%.

And the “% CD40L positive cells” value (CD8+ T cells; 10 μL virus, TMP 50 nM)?
The value was 1.07%.

And the “% CD40L positive cells” value (CD8+ T cells; 10 μL virus, TMP 500 nM)?
Its value is 5.53%.

What about the “% CD40L positive cells” value (CD8+ T cells; 10 μL virus, TMP 5000 nM) of the same molecule?
The value was 47.4%.

And the “% CD40L positive cells” value (CD8+ T cells; 10 μL virus, TMP 50000 nM)?
The value was 59.4%.

What about the “% CD40L positive cells in vivo” value (T cells; 0 hours, average, TMP 500 mg/kg every 4 hours) of the same molecule?
Its value is 1.0%.

And the “% CD40L positive cells in vivo” value (T cells; 0 hours, average, Vehicle)?
The value was 0.9%.

And the “% CD40L positive cells in vivo” value (T cells; 0 hours, individual values, TMP 500 mg/kg every 4 hours)?
Its value is 0.9% (2×) and 0.4% and 1.8%.

And the “% CD40L positive cells in vivo” value (T cells; 0 hours, individual values, Vehicle)?
Its value is 0.8% and 0.9% and 0.1% and 1.8%.

And the “% CD40L positive cells in vivo” value (T cells; 2 hours, average, TMP 500 mg/kg every 4 hours)?
Its value is 8.6%.

What about the “% CD40L positive cells in vivo” value (T cells; 2 hours, average, Vehicle) of the same molecule?
Its value is 0.9%.

What about the “% CD40L positive cells in vivo” value (T cells; 2 hours, individual values, TMP 500 mg/kg every 4 hours) of the same molecule?
Its value is 11.8% and 13.0% and 9.6% and 0.0%.

And the “% CD40L positive cells in vivo” value (T cells; 2 hours, individual values, Vehicle)?
The value was 0.6% and 1.0% and 0.0% and 1.9%.

What about the “% CD40L positive cells in vivo” value (T cells; 6 hours, average, TMP 500 mg/kg every 4 hours) of the same molecule?
The value was 19.9%.

And the “% CD40L positive cells in vivo” value (T cells; 6 hours, average, Vehicle)?
The value was 0.3%.

And the “% CD40L positive cells in vivo” value (T cells; 6 hours, individual values, TMP 500 mg/kg every 4 hours)?
Its value is 22.1% and 25.7% and 13.8% and 18.0%.

And the “% CD40L positive cells in vivo” value (T cells; 6 hours, individual values, Vehicle)?
Its value is 0.3% and 0.4% and 0.5% and 0.2%.

What about the “% CD40L positive cells in vivo” value (T cells; 10 hours, average, TMP 500 mg/kg every 4 hours) of the same molecule?
Its value is 20.1%.

What about the “% CD40L positive cells in vivo” value (T cells; 10 hours, average, Vehicle) of the same molecule?
The value was 0.1%.

What about the “% CD40L positive cells in vivo” value (T cells; 10 hours, individual values, TMP 500 mg/kg every 4 hours) of the same molecule?
Its value is 26.0% and 21.4% and 0.0% and 33.1%.

And the “% CD40L positive cells in vivo” value (T cells; 10 hours, individual values, Vehicle)?
Its value is 0.0% (3×) and 0.3%.

And the “% CD40L positive cells in vivo” value (T cells; 24 hours, average, TMP 500 mg/kg every 4 hours)?
Its value is 12.0%.

And the “% CD40L positive cells in vivo” value (T cells; 24 hours, average, Vehicle)?
The value was 0.6%.

And the “% CD40L positive cells in vivo” value (T cells; 24 hours, individual values, TMP 500 mg/kg every 4 hours)?
The value was 1.2% and 0.8% and 18.9% and 27.2%.

And the “% CD40L positive cells in vivo” value (T cells; 24 hours, individual values, Vehicle)?
The value was 0.0% and 0.3% and 1.4% and 0.7%.

What about the “CD40L MFI in vitro” value ([3]; CD4+, TMP (10 μM)) of the same molecule?
The value was 10159.

What about the “CD40L MFI in vitro” value ([3]; CD4+, Vehicle) of the same molecule?
Its value is 348.

What about the “CD40L MFI in vitro” value ([3]; CD8+, TMP (10 μM)) of the same molecule?
Its value is 4893.

What about the “CD40L MFI in vitro” value ([3]; CD8+, Vehicle) of the same molecule?
The value was 182.
